Data from article PMC12052159.

Experiments:
Assay in all cases: EMSA
Details in all cases: EMSA with 5' 32P PCR fragments, MarA 1, 2 or 4 uM, PAGE at 150 V; buffer, salt, pH and temperature not given (cited method)
MarA (Escherichia coli) = molecular target: T1, MarA (Escherichia coli) (UniProt P0ACH5)
T1 sequence: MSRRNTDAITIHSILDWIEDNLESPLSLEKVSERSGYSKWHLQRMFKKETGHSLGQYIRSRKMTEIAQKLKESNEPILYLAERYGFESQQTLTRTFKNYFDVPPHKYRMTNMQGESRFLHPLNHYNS

SoxS (Escherichia coli) = molecular target: T2, SoxS (Escherichia coli) (UniProt P0A9E2)
T2 sequence: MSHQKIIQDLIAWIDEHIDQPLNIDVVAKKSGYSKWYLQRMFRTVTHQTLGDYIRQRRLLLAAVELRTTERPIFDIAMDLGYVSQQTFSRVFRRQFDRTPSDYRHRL

Rob (Escherichia coli) = molecular target: T3, Rob (Escherichia coli) (UniProt P0ACI0)
T3 sequence: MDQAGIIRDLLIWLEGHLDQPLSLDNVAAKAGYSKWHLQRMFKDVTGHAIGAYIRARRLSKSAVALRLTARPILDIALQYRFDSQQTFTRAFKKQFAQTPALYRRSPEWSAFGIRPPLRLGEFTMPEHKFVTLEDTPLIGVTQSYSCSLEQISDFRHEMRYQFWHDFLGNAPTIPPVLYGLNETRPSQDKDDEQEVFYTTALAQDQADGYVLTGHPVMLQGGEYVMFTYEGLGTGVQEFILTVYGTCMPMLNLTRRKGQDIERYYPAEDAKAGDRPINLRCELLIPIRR

| Sequence | binding (MarA (Escherichia coli)) | binding (SoxS (Escherichia coli)) | binding (Rob (Escherichia coli)) |
| --- | --- | --- | --- |
| GCCCGAAGCTTCATATCAATCCTGTTTTTCAACCTATTCGGGCAATTGTATGTATTGTCGCATTTTTTCGCCCGCAACCAAAATTTGTGGCTGAAGACTGGGCGAAATTGCCGCGCTTGTAAATAACAAATAATTTTTAATGCGCAAATGTAGCGTAAAATGTGTGGATGTTAATTATCGATAATACATATATCATGCCGCGGATTTTTACTTTCCCATCTCGCAGGAACCGTACACCATGG / AATTCCATGGTGTACGGTTCCTGCGAGATGGGAAAGTAAAAATCCGCGGCATGATATATGTATTATCGATAATTAACATCCACACATTTTACGCTACATTTGCGCATTAAAAATTATTTGTTATTTACAAGCGCGGCAATTTCGCCCAGTCTTCAGCCACAAATTTTGGTTGCGGGCGAAAAAATGCGACAATACATACAATTGCCCGAATAGGTTGAAAAACAGGATTGATATGAAGCTTCGGGC [lpxLmut1 regulatory region] | binds more weakly | – | – |
| GCCCGAAGCTTCATATCAATCCTGTTTTTCAACCTATTCGGGCAATTGTATGTATTGTCGCATTTTTTCGCCCGCAACCAAAATTTGTGGCTGAAGACTGGGCGAAATTGCCGCGCTTGTAAATAACAAATAATTTTTAATGCGCAAATGTAGCGTAAAATGTGTGGATGTTAATTATCGATAATTGCTATATCATGCCGCGGATTTTTACTTTCCCATCTCGCAGGAACCGTACACCATGG / AATTCCATGGTGTACGGTTCCTGCGAGATGGGAAAGTAAAAATCCGCGGCATGATATAGCAATTATCGATAATTAACATCCACACATTTTACGCTACATTTGCGCATTAAAAATTATTTGTTATTTACAAGCGCGGCAATTTCGCCCAGTCTTCAGCCACAAATTTTGGTTGCGGGCGAAAAAATGCGACAATACATACAATTGCCCGAATAGGTTGAAAAACAGGATTGATATGAAGCTTCGGGC [lpxL regulatory region] | binds | binds | binds |
| AATTCCATGGTGTACGGTTCCTGCGAGATGGGAAAGTAAAAATCCGCGGCATGATATAGCAATTATCGATAATTAACATCCACACATTTTACGCTACATTTGCGCATTAAAAATTATTTGTTATTTACAAGCGCGGCAAGGGCCGCCAGTCTTCAGCCACAAATTTTGGTTGCGGGCGAAAAAATGCGACAATACATACAATTGCCCGAATAGGTTGAAAAACAGGATTGATATGAAGCTTCGGGC / GCCCGAAGCTTCATATCAATCCTGTTTTTCAACCTATTCGGGCAATTGTATGTATTGTCGCATTTTTTCGCCCGCAACCAAAATTTGTGGCTGAAGACTGGCGGCCCTTGCCGCGCTTGTAAATAACAAATAATTTTTAATGCGCAAATGTAGCGTAAAATGTGTGGATGTTAATTATCGATAATTGCTATATCATGCCGCGGATTTTTACTTTCCCATCTCGCAGGAACCGTACACCATGG [lpxLmut3 regulatory region] | binds | – | – |
| GCCCGAAGCTTCATAGTAAATAGCTGACTTATGGATGTGCTGGGGATTCTATGTATTTAGCTGTGGCTTTACCATTACTTTTCCCGTTTTTGACTTAAATAGCTTCAGTTTGGTCTGATCTGCCGCTACATCTTCATTTTTTTTGTATTTTTATGCGATTCATTGAAACTCGGCCCG / AATTCGGGCCGAGTTTCAATGAATCGCATAAAAATACAAAAAAAATGAAGATGTAGCGGCAGATCAGACCAAACTGAAGCTATTTAAGTCAAAAACGGGAAAAGTAATGGTAAAGCCACAGCTAAATACATAGAATCCCCAGCACATCCATAAGTCAGCTATTTACTATGAAGCTTCGGGC [kdtA (waaA) regulatory region] | binds | – | – |
| AATTCATTGGCCAGAGGGTTTGGTTGGGTGAGAATGTGACGGTTTTGCCTGGAACAATTATTGGTAATGGAGTCGTAGTCGGCGCCAATTCTGTTGTTAGAGGTTCTATTCCCGAAAATACTGTCATTGCGGGAGTACCAGCAAAAATCATAAAGAAATACAATCATGAGACCAAATTATGAAGCTTCGGGC / GCCCGAAGCTTCATAATTTGGTCTCATGATTGTATTTCTTTATGATTTTTGCTGGTACTCCCGCAATGACAGTATTTTCGGGAATAGAACCTCTAACAACAGAATTGGCGCCGACTACGACTCCATTACCAATAATTGTTCCAGGCAAAACCGTCACATTCTCACCCAACCAAACCCTCTGGCCAATG [wbbK regulatory region] | no binding | – | – |
| GCCCGAAGCTTCATAACTGTAACCTTCGAATTATGGAGTCAGAGACAATCTCAGACACGAATGTCTGTAATCATACCATCACATCCGAATCCCTTCAGCCCTTTACATAGAGGTGCAAGGATGCTAATTGCAACAAACTAGTTTGGGTTTTAGCTAGTCCTTCATGGCGGATGTTGGTTTTGCATGTGAATAGTGCG / AATTCGCACTATTCACATGCAAAACCAACATCCGCCATGAAGGACTAGCTAAAACCCAAACTAGTTTGTTGCAATTAGCATCCTTGCACCTCTATGTAAAGGGCTGAAGGGATTCGGATGTGATGGTATGATTACAGACATTCGTGTCTGAGATTGTCTCTGACTCCATAATTCGAAGGTTACAGTTATGAAGCTTCGGGC [waaD regulatory region] | no binding | – | – |
| GCCCGAAGCTTCATATCAATCCTGTTTTTCAACCTATTCGGGCAATTGTATGTATTGTCGCATTTTTTCGCCCGCAACCAAAATTTGTGGCTGAAGACTGGGCGAAATTGCCGCGCTTGTAAATAACAAATAATTTTTAATGCTGTAATGTAGCGTAAAATGTGTGGATGTTAATTATCGATAATTGCTATATCATGCCGCGGATTTTTACTTTCCCATCTCGCAGGAACCGTACACCATGG / AATTCCATGGTGTACGGTTCCTGCGAGATGGGAAAGTAAAAATCCGCGGCATGATATAGCAATTATCGATAATTAACATCCACACATTTTACGCTACATTACAGCATTAAAAATTATTTGTTATTTACAAGCGCGGCAATTTCGCCCAGTCTTCAGCCACAAATTTTGGTTGCGGGCGAAAAAATGCGACAATACATACAATTGCCCGAATAGGTTGAAAAACAGGATTGATATGAAGCTTCGGGC [lpxLmut2 regulatory region] | binds | – | – |
| GCCCGAAGCTTCATGATGAGCATTCAGATAGTGGTTCACGCGCACGGGTTGCGCACCGCCGGAGTAAGGATTTACTGAGGCTAGCGACGCCATCATAACGAGCAAAAAGTGCGATCGTCAAAGGAGAATCGTGAGGAAATGCTGCATTGCTGACATTTACGCCG / AATTCGGCGTAAATGTCAGCAATGCAGCATTTCCTCACGATTCTCCTTTGACGATCGCACTTTTTGCTCGTTATGATGGCGTCGCTAGCCTCAGTAAATCCTTACTCCGGCGGTGCGCAACCCGTGCGCGTGAACCACTATCTGAATGCTCATCATGAAGCTTCGGGC [pbpG regulatory region] | binds | – | – |
| GCCCGAAGCTTCATCGTATTATCTCGCCAAATTACCTATCCAACCGAAGTGTACTATACATTCGGCGGGCCAGTTTAGCACAAAGAGCCTCGAAACCCAAATTCCAGTCAATTCTTAATCAGCTTGCTTACGCAG / AATTCTGCGTAAGCAAGCTGATTAAGAATTGACTGGAATTTGGGTTTCGAGGCTCTTTGTGCTAAACTGGCCCGCCGAATGTATAGTACACTTCGGTTGGATAGGTAATTTGGCGAGATAATACGATGAAGCTTCGGGC [lpxC regulatory region] | binds | binds | binds |
| AATTCTGCAACTAAACCGTGGCACAAATGGGCAATTTATCCATCGGTAAAATACTATAAAATAGCTTTAGAAAATTCCCCCTGGAAAGATGACTCTCCACGAGATGCGAAATCAATTATTGAATTTAAAAAAAGATATAAACATCTTTTAGTGCAACATCATTATATCTCAGGAATTATAGCAGGAGTCTGTTATCTTTGCCGAAAATATTACCGTAAATAACATTTAACTGGTTTATTATGAAGCTTCGGGC / GCCCGAAGCTTCATAATAAACCAGTTAAATGTTATTTACGGTAATATTTTCGGCAAAGATAACAGACTCCTGCTATAATTCCTGAGATATAATGATGTTGCACTAAAAGATGTTTATATCTTTTTTTAAATTCAATAATTGATTTCGCATCTCGTGGAGAGTCATCTTTCCAGGGGGAATTTTCTAAAGCTATTTTATAGTATTTTACCGATGGATAAATTGCCCATTTGTGCCACGGTTTAGTTGCAG [rfaY (waaY) regulatory region] | binds | binds | binds |
| GCCCGAAGCTTCATGATGAGCATTCAGATAGTGGTTCACGCGCACGGGTTGCGCACCGCCGGAGTAAGGATTTACTGAGGCTAGCGACGCCATCATAACGAGCAAAAAGACAGATCGTCAAAGGAGAATCGTGAGGAAATGCTGCATTGCTGACATTTACGCCG / AATTCGGCGTAAATGTCAGCAATGCAGCATTTCCTCACGATTCTCCTTTGACGATCTGTCTTTTTGCTCGTTATGATGGCGTCGCTAGCCTCAGTAAATCCTTACTCCGGCGGTGCGCAACCCGTGCGCGTGAACCACTATCTGAATGCTCATCATGAAGCTTCGGGC [pbpGmut regulatory region] | no binding | – | – |
| AATTCTGCGTAAGCAAGCTGATTAAGAATTGACTGGAATTTGGGTTTCGAGTGTGTTTGTGCTAAACTGGCCCGCCGAATGTATAGTACACTTCGGTTGGATAGGTAATTTGGCGAGATAATACGATGAAGCTTCGGGC / GCCCGAAGCTTCATCGTATTATCTCGCCAAATTACCTATCCAACCGAAGTGTACTATACATTCGGCGGGCCAGTTTAGCACAAACACACTCGAAACCCAAATTCCAGTCAATTCTTAATCAGCTTGCTTACGCAG [lpxCmut regulatory region] | binds more weakly | – | – |
